According to publication PMC7863765:

Experiments:
[1] = target: polyphosphorylated full-length SARS-CoV-2 nucleocapsid protein pN.1-419 (SARS-CoV-2) (UniProt P0DTC9); assay: SEC
[2] = target: polyphosphorylated full-length SARS-CoV-2 nucleocapsid protein pN.1-419 (SARS-CoV-2) (UniProt P0DTC9); assay: SEC-MALS

With “untagged full-length human 14-3-3γ (from UniProt P61981 1-247) (natural protein)” as the substance, how does the Kd [1] read?
The Kd was 1500 nM.

And the stoichiometry N (14-3-3γ chains per pN.1-419 chain (2:2)) [1]?
The stoichiometry N (14-3-3γ chains per pN.1-419 chain (2:2)) was 1.

What about the stoichiometry N (14-3-3γ chains per pN.1-419 chain (2:2)) [2] of the same substance?
The stoichiometry N (14-3-3γ chains per pN.1-419 chain (2:2)) was 1.
